Measured values: patent US9802997B2, “Peptides and combination of peptides for use in immunotherapy against various tumors” (immatics biotechnologies GmbH, priority 2015, dated 2017)

Each substance was assayed against HLA-A*02:01 (Homo sapiens, UniProt P04439, D140Y/D185E/D98H/E176V/E277Q/G131W/G231S/I119V/I121R/I166T/I218V/L300P/L318F/N151K/N90K/P208A/P217A/Q86G/Q94H/R138H/R169H/T345S) (assay: MHC binding assay (UV-ligand exchange, beta2m ELISA)). Conditions: binding to HLA-A*02:01, β2m ELISA.
Source text: Candidate peptides for T cell based therapies according to the present invention were further tested for their MHC binding capacity (affinity). The individual peptide-MHC complexes were produced by UV-ligand exchange, where a UV-sensitive peptide is cleaved upon UV-irradiation, and exchanged with the peptide of interest as analyzed. Only peptide candidates that can effectively bind and stabilize the peptide-receptive MHC molecules prevent dissociation of the MHC complexes. To determine the yield of the exchange reaction, an ELISA was performed based on the detection of the light chain (β2m) of stabilized MHC complexes. The assay was performed as generally described in Rodenko et al. (Rodenko et al., 2006).
96 well MAXISorp plates (NUNC) were coated over night with 2 ug/ml streptavidin in PBS at room temperature, washed 4× and blocked for 1 h at 37° C. in 2% BSA containing blocking buffer. Refolded HLA-A*02:01/MLA-001 monomers served as standards, covering the range of 15-500 ng/ml. Peptide-MHC monomers of the UV-exchange reaction were diluted 100 fold in blocking buffer. Samples were incubated for 1 h at 37° C., washed four times, incubated with 2 ug/ml HRP conjugated anti-β2m for 1 h at 37° C., washed again and detected with TMB solution that is stopped with […]. Absorption was measured at 450 nm. Candidate peptides that show a high exchange yield (preferably higher than 50%, most preferred higher than 75%) are generally preferred for a generation and production of antibodies or fragments thereof, and/or T cell receptors or fragments thereof, as they show sufficient avidity to the MHC molecules and prevent dissociation of the MHC complexes.

Row | Substance | Peptide exchange (MHC class I binding score, peptide exchange yield)
1 | 79 (TVLEEIGNRV; listed as Homo sapiens) [compound 79] | ++ (≧20% = ++)
2 | 12 (RLLDPKTIFL; listed as Homo sapiens) [compound 12] | +++ (≧50 = +++)
3 | 71 (HMSGKLTNV; listed as Homo sapiens) [compound 71] | ++ (≧20% = ++)
4 | 59 (ALADGIKSFLL; listed as Homo sapiens) [compound 59] | +++ (≧50 = +++)
5 | 49 (KLIGNIHGNEV; listed as Homo sapiens) [compound 49] | ++ (≧20% = ++)
6 | 21 (YLMDDFSSL; listed as Homo sapiens) [compound 21] | +++ (≧50 = +++)
7 | 13 (RLHDENILL; listed as Homo sapiens) [compound 13] | +++ (≧50 = +++)
8 | 113 (FLFLKEVKV; listed as Homo sapiens) [compound 113] | ++ (≧20% = ++)
9 | 67 (FLIENLLAA; listed as Homo sapiens) [compound 67] | +++ (≧50 = +++)
10 | 36 (TVLQELINV; listed as Homo sapiens) [compound 36] | +++ (≧50 = +++)
11 | 53 (AQHLSTLLL; listed as Homo sapiens) [compound 53] | + (≧10% = +)
12 | 91 (LLPSIFLMV; listed as Homo sapiens) [compound 91] | ++ (≧20% = ++)
13 | 100 (ALQSFEFRV; listed as Homo sapiens) [compound 100] | +++ (≧50 = +++)
14 | 123 (QTAPEEAFIKL; listed as Homo sapiens) [compound 123] | + (≧10% = +)
15 | 99 (TLFGIQLTEA; listed as Homo sapiens) [compound 99] | +++ (≧50 = +++)
16 | 107 (RVLPGQAVTGV; listed as Homo sapiens) [compound 107] | ++ (≧20% = ++)
17 | 65 (SLSEKSPEV; listed as Homo sapiens) [compound 65] | ++ (≧20% = ++)
18 | 119 (SLIEESEEL; listed as Homo sapiens) [compound 119] | ++ (≧20% = ++)
19 | 57 (TLYPGRFDYV; listed as Homo sapiens) [compound 57] | ++ (≧20% = ++)
20 | 28 (IKVTDPQLLEL; listed as Homo sapiens) [compound 28] | ++ (≧20% = ++)
21 | 85 (KLLDKPEQFL; listed as Homo sapiens) [compound 85] | ++ (≧20% = ++)
22 | 38 (VLQQESNFL; listed as Homo sapiens) [compound 38] | ++ (≧20% = ++)
23 | 98 (FVQEKIPEL; listed as Homo sapiens) [compound 98] | +++ (≧50 = +++)
24 | 72 (VLSTRVTNV; listed as Homo sapiens) [compound 72] | ++ (≧20% = ++)
25 | 117 (TLLEGISRA; listed as Homo sapiens) [compound 117] | ++ (≧20% = ++)
26 | 126 (QLREAFEQL; listed as Homo sapiens) [compound 126] | +++ (≧50 = +++)

Next, values leading:

Row | Peptide exchange (MHC class I binding score, peptide exchange yield) | Substance
27 | ++ (≧20% = ++) | 212 (MTLSEIHAV; listed as Homo sapiens) [compound 212]
28 | ++ (≧20% = ++) | 279 (VLMDEGAVLTL; listed as Homo sapiens) [compound 279]
29 | +++ (≧50 = +++) | 190 (SLSTELFKV; listed as Homo sapiens) [compound 190]
30 | +++ (≧50 = +++) | 253 (KLLAVIHEL; listed as Homo sapiens) [compound 253]
31 | ++ (≧20% = ++) | 282 (SLYALHVKA; listed as Homo sapiens) [compound 282]
32 | + (≧10% = +) | 227 (SEMEELPSV; listed as Homo sapiens) [compound 227]
33 | +++ (≧50 = +++) | 167 (LVVDEGSLVSV; listed as Homo sapiens) [compound 167]
34 | +++ (≧50 = +++) | 241 (KQFEGTVEI; listed as Homo sapiens) [compound 241]
35 | +++ (≧50 = +++) | 169 (ALADLSVAV; listed as Homo sapiens) [compound 169]
36 | +++ (≧50 = +++) | 193 (ALFHMNILL; listed as Homo sapiens) [compound 193]
37 | +++ (≧50 = +++) | 173 (RLIDIYKNV; listed as Homo sapiens) [compound 173]
38 | ++ (≧20% = ++) | 203 (FLFVDPELV; listed as Homo sapiens) [compound 203]
39 | +++ (≧50 = +++) | 249 (YLYQILQGI; listed as Homo sapiens) [compound 249]
40 | ++++ (≧75% = ++++) | 269 (GLLDCPIFL; listed as Homo sapiens) [compound 269]
41 | ++ (≧20% = ++) | 133 (FLDGRPLTL; listed as Homo sapiens) [compound 133]
42 | +++ (≧50 = +++) | 277 (KLQEELNKV; listed as Homo sapiens) [compound 277]
43 | ++ (≧20% = ++) | 129 (KMASKVTQV; listed as Homo sapiens) [compound 129]
44 | +++ (≧50 = +++) | 244 (NVAEIVIHI; listed as Homo sapiens) [compound 244]

Row | Peptide exchange (MHC class I binding score, peptide exchange yield) | Substance
45 | +++ (≧50 = +++) | 262 (LLLEAVWHL; listed as Homo sapiens) [compound 262]
46 | +++ (≧50 = +++) | 140 (FLDSQITTV; listed as Homo sapiens) [compound 140]
47 | ++ (≧20% = ++) | 138 (GIINKLVTV; listed as Homo sapiens) [compound 138]
48 | ++ (≧20% = ++) | 170 (FIAAVVEKV; listed as Homo sapiens) [compound 170]
49 | +++ (≧50 = +++) | 211 (LLTTVLINA; listed as Homo sapiens) [compound 211]
50 | ++ (≧20% = ++) | 266 (FLLDKPQDL; listed as Homo sapiens) [compound 266]
51 | ++ (≧20% = ++) | 174 (ALYSGDLHAA; listed as Homo sapiens) [compound 174]
52 | ++ (≧20% = ++) | 163 (GLEERLYTA; listed as Homo sapiens) [compound 163]
53 | +++ (≧50 = +++) | 191 (AAIEIFEKV; listed as Homo sapiens) [compound 191]
54 | +++ (≧50 = +++) | 166 (LLGDSSFFL; listed as Homo sapiens) [compound 166]
55 | ++ (≧20% = ++) | 176 (VQSGLRILL; listed as Homo sapiens) [compound 176]
56 | +++ (≧50 = +++) | 230 (KLLNMIFSI; listed as Homo sapiens) [compound 230]
57 | +++ (≧50 = +++) | 250 (LMQDSRLYL; listed as Homo sapiens) [compound 250]
58 | +++ (≧50 = +++) | 217 (LLWPSSVPA; listed as Homo sapiens) [compound 217]
59 | ++ (≧20% = ++) | 273 (SLNKQIETV; listed as Homo sapiens) [compound 273]
60 | ++ (≧20% = ++) | 155 (TLDSYLKAV; listed as Homo sapiens) [compound 155]
61 | + (≧10% = +) | 259 (GPGIFPPPPPQP; listed as Homo sapiens) [compound 259]
62 | +++ (≧50 = +++) | 162 (GLLGNLLTSL; listed as Homo sapiens) [compound 162]
